How the values were obtained:
[1] = biological target: TssZ-HA (TssZ fused with a HA tag at its carboxyl-terminal) (Pseudomonas aeruginosa PAO1); experiment: co-IP; PAO1 lysate co-expressing TssZ-HA (or TssZ^R5A/R9A) and V5-HinK; Anti-HA Affinity Gel, 2 h at 4 °C, 50 mM Tris-HCl pH 8.0, 150 mM NaCl, 0.05% TWEEN-20; blots with anti-V5 and anti-HA; also in strains overexpressing PA2133 (low c-di-GMP) or WspR (high c-di-GMP) and with 0-6.4 μM exogenous c-di-GMP
[2] = biological target: TssZ^R5A/R9A (non-c-di-GMP-binding mutant) as used in the co-IP (Pseudomonas aeruginosa PAO1); experiment: as above

“V5-HinK (HinK fused with V5 tag at its amino-terminal) (natural protein)” gave a fold change of co-immunoprecipitated V5-HinK, low c-di-GMP lysate (PA2133 overexpressing strain) against the PAO1 control strain [1] of 2.2 fold and a fold change of co-immunoprecipitated V5-HinK against wild-type TssZ [2] of 3.3 fold.

From PMC10912698
